Source: US20260151494A1

Molecular target: human serum albumin (human) (UniProt P02768)
Test: primary ELISA screen, HSA negative control

Chain of human serum albumin (human) (P02768 25-609 limits assumed): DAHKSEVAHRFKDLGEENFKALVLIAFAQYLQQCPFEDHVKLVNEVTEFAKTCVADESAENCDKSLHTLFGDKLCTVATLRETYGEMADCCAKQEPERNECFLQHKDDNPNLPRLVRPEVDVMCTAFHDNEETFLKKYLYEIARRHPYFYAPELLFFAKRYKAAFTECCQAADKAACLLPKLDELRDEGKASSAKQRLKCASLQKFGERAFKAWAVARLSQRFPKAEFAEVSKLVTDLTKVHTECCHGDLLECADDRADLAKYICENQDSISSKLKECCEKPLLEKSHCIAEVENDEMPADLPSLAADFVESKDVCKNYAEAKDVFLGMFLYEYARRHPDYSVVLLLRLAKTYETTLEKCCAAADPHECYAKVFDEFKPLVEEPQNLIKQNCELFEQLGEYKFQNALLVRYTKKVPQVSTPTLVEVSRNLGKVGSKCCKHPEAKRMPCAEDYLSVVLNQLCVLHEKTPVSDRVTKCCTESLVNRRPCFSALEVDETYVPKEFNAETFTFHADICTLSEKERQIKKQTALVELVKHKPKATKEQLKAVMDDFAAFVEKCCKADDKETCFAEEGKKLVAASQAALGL

B1: CD71-binding FN3 domain of SEQ ID NO: 334 (designed binder, not shown: small tags and cut ends)
chain: MSLPAPKNLVVSRVTEDSARLSWTAPDAAFDSFEIAYQELSLWGEAIVLTVPGSERSYDLTGLKPGTEYWVQIGGVKGGIWSSPLVASFTT
  RLU: 14400 RLU

B2: CD71-binding FN3 domain of SEQ ID NO: 335 (designed binder, not shown: small tags and cut ends)
chain: MSLPAPKNLVVSRVTEDSARLSWTAPDAAFDSFFIGYLEPQPPGEAIDLYVPGSERSYDLTGLKPGTEYNVTIQGVKGGFPSLPLVATFTT
  RLU: 57300 RLU

B3: CD71-binding FN3 domain of SEQ ID NO: 336 (designed binder, not shown: small tags and cut ends)
chain: MSLPAPKNLVVSRVTEDSARLSWTAPDAAFDSFNIMYHEHYDNGEAIVLTVPGSERSYDLTGLKPGTEYSVVINGVKGGPHSAPLSAIFTT
  RLU: 16800 RLU

B4: CD71-binding FN3 domain of SEQ ID NO: 337 (designed binder, not shown: small tags and cut ends)
chain: MSLPAPKNLVVSRVTEDSARLSWTAPDAAFDSFFIGYLEPQPPGEAIHLYVPGSERSYDLTGLKPGTEYNVTIQGVKGGFPSIPLIASFTT
  RLU: 17200 RLU

B5: CD71-binding FN3 domain of SEQ ID NO: 338 (designed binder, not shown: small tags and cut ends)
chain: MSLPAPKNLVVSRVTEDSARLSWTAPDAAFDSFEIGYFENLYLGEAIVLTVPGSERSYDLTGLKPGTEYCVYICGVKGGRDSMPLSAIFTT
  RLU: 40200 RLU

B6: CD71-binding FN3 domain of SEQ ID NO: 339 (designed binder, not shown: small tags and cut ends)
chain: MSLPAPKNLVVSRVTEDSARLSWTAPDAAFDSFEIGYWEMSYYGEAIVLTVPGSERSYDLTGLKPGTEYGVSIGGVKGGRWSLPLSAIFTT
  RLU: 7050 RLU

B7: CD71-binding FN3 domain of SEQ ID NO: 340 (designed binder, not shown: small tags and cut ends)
chain: MSLPAPKNLVVSRVTEDSSRLSWTAPDAAFDSFEIGYFENLYLGEAIVLTVPGSERSYDLTGLKPGTEYWVQIGGVKGGNWSAPLSAIFTT
  RLU: 28300 RLU

B8: CD71-binding FN3 domain of SEQ ID NO: 341 (designed binder, not shown: small tags and cut ends)
chain: MSLPAPKNLVVSRVTEDSARLSWTAPDAAFDSFFIGYLEPQPPGEAIELYVPGSERSYDLTGLKPGTEYNVTIQGVKGGFPSLPLVAIFTT
  RLU: 58000 RLU

B9: CD71-binding FN3 domain of SEQ ID NO: 342 (designed binder, not shown: small tags and cut ends)
chain: MSLPAPKNLVVSRVTEDSARLSWTAPDAAFDSFFIGYLEPQPPGEAIVLTVPGSERSYDLTGLKPGTEYNVTIQGVKGGFPSEPLIANFTT
  RLU: 425000 RLU

B10: CD71-binding FN3 domain of SEQ ID NO: 343 (designed binder, not shown: small tags and cut ends)
chain: MSLPAPKNLVVSRVTEDSARLSWTAPDAAFDSFFIGYLEPQPPGEAIALWVPGSERSYDLTGLKPGTEYNVTIQGVKGGFPSEPLVATFTT
  RLU: 30400 RLU

B11: CD71-binding FN3 domain of SEQ ID NO: 344 (designed binder, not shown: small tags and cut ends)
chain: MSLPAPKNLFVSRVTEDSARLSWTAPDAAFDSFEIGYWENAYKGEAIVLTVPGSERSYDLTGLKPGTEYWVQIGGVKGGNWSAPLSAIFTT
  RLU: 36900 RLU

B12: CD71-binding FN3 domain of SEQ ID NO: 345 (designed binder, not shown: small tags and cut ends)
chain: MSLPAPKNLVVSRVTEDSAHLSWTAPDAAFDSFEIGYFENDYFGEAIVLTVPGSERSYDLTGLKPGTEYVVFIGGVKGGKWSAPLSAIFTT
  RLU: 23600 RLU
